In US7098025B1, “Human peroxisome proliferator activated receptor gamma (pparγ) gene regulatory sequences and uses therefor” (Ligand Pharmaceuticals Incorporated, priority 1997, dated 2006):

Assays:
human PPARγ2 promoter = experiment: pGL3γ2p1000 luciferase reporter cotransfection; type: cell-based; conditions: expression vector cotransfected
Source text: (§1) To assess whether ADD-1 regulates the expression of the hPPARγ3 mRNA, we cotransfected either an expression plasmid coding for ADD-1 together with the pGL3γ3p800 luciferase reporter vector. When Hep G2 cells were cotransfected with the ADD-1 expression vector, the luciferase activity was increased at least 4-fold relative to the basal activity of the hPPARγ3 promoter.
A 1-kb fragment of PAC clone 8856 was isolated by PCR using the oligonucleotides LF-35 (binding antisense in the PPARγ2 5′-UTR) and the oligonucleotide LF-58 (binding sense at position −1000 of the PPARγ2), was sequenced, and was inserted into EcoRV site of pBluescript (Stratagene, La Jolla, Calif.). After digestion of plasmid pBS γ2p1000 with SmaI and KpnI, the insert was cloned into the reporter vector pGL3 (Promega), creating the expression vector pGL3γ2p1000.
(§2) Site-directed mutagenesis of the E-box in the PPARγ3 promoter was performed by splicing overlapping ends polymerase chain reaction (Ho, et al., Gene 77:51–59 (1989)), using the oligo pairs LF-106/LF-60 and LF-107/LF-68, to generate the plasmid pGL3γ3p800-E-boxmut. […]

PPARγ mRNA [1] = experiment: RNase protection assay of PPARγ mRNA in retrovirally infected 3T3-L1 cells; type: cell-based, mouse; conditions: 3T3-L1 preadipocytes and adipocytes; retroviral ectopic expression
Method: To study the effects of ADD-1 on PPARγ expression in more detail, either an empty retroviral vector pBabe or the same vector encoding for full length ADD-1 or the superactive ADD-1-403 form were introduced into 3T3-L1 cells via retroviral infection. […] Infected cells were then cultured to confluence and consecutively treated with differentiation medium. Total RNA was isolated at confluence (preadipocytes) and at day 6 after confluence (adipocytes) from the cells expressing either the empty pBabe vector or the same vector encoding for ADD-1 or ADD-1-403, a truncated form of ADD-1, equivalent to the proteolytically activated protein, which lacks the membrane anchoring domain. […] The effect of retroviral infection was more pronounced in 3T3-L1 adipocytes relative to preadipocytes.
Control cells received vehicle only.
(§3) The absolute mRNA concentration of the differentially spliced PPARγ variants was measured by RNase protection assay exactly as described (Lemberger et al., J. Biol. Chem. 271:1764–1769 (1995)). The full lenght PPARγ2 coding region plus 33 bp of the 5′ UTR was amplified from human adipose tissue RNA by RT-PCR with the primer pair LF-3/LF-36 and was inserted in the inverted orientation (3′ to 5′ in front of the T7 promoter) into the EcoRI site of the expression vector pSG5 (Stratagene, La Jolla, Calif.). […]

PPARγ mRNA [2] = experiment: RNase protection assay of endogenous PPARγ mRNA in electroporated Hep G2 cells; type: cell-based, human; conditions: Hep G2 cells electroporated with expression vector; 48 hr after transfection
Source text: To investigate whether ADD-1/SREBP-1 expression was sufficient to regulate the expression of the endogeneous PPARγ3 mRNA, Hep G2 cells were electroporated with vectors expressing either SREBP-1a (Yokoyama et al., Cell 75:187–197 (1993)) or ADD-1 (Tontonoz et al., Mol. Cell. Biol. 13:4753–4759 (1993)). RNA was extracted 48 hr after transfection and analysed by RNase protection assay for the presence of PPARγ mRNA.
as §3, with “Calif.). The resulting plasmid pSG5-hPPARγ2-inv was digested with EcoRV and religated, yielding the vector pSG5-hPPARγ2-RPA, which was used as a template for the synthesis of the anti-sense RNA probe, to measure the relative amounts of PPARγ2 relative to PPARγ1 and 3 mRNA.” for “Calif.).”

hPPARγ3 promoter = experiment: pGL3γ3p800 luciferase reporter cotransfection in Hep G2 cells; type: cell-based, human; conditions: E-box mutated
Source text: as §1
A 800 bp fragment of the PAC clone 8856 was isolated by PCR using the amplimers LF-60 (binding to the antisense strand in exon A2) and LF-68 (binding sense at position −800 of the PPARγ3 promoter). This PCR fragment was sequenced, inserted into the EcoRV site of pBluescript SK+ (Stratagene, La Jolla, USA), and after SpeI and KpnI restriction subcloned into pGL3 (Promega, Madison, USA), creating the reporter vector pGL3γ3p800.
as §2

human PPARγ1 promoter = experiment: pGL3γ1p3000 luciferase reporter cotransfection; type: cell-based; conditions: expression vector cotransfected
Source text: as §1
To isolate the PPARγ1 promoter, an 8-kb EcoRI fragment, which hybridized with the oligonucleotide LF-2 (corresponding to the 5′-UTR of γ1), was cloned into pBluescript. […] To test for promoter activity, a SacI/XhoI digestion of this clone containing the 3-kb promoter was inserted in the same sites of pGL3, resulting in the final vector pGL3 γ1p3000. The pSG5-haPPARγ (39) and pMSV-C/EBPβ (10) expression vectors were described elsewhere. Transfections were carried out in 60-mm plates using standard calcium phosphate precipitation techniques (for 3T3-L1, CV-1, and COS cells) (22). Luciferase and […] assays were carried out exactly as described previously (22).
as §2

B1: ADD-1: basic helix-loop-helix leucine zipper transcription factor, expressed from a cotransfected, electroporated or retroviral vector (protein, UniProt P56720 1-1134, looked up)
Sterol regulatory …: MDELPFGEAALEQALAEVCEMDAALLTDIEDMLQLINNQDSDFPGLFDAPYAGGETGDTGPSSPGASSPESFSSPASLGSSLEAFLGGPKVTPAPLSPPPSAPTAVKMYPSVPPFSPGPGIKEEPVPLTILQPPAPQPSPGTLLPPSFPPPPVQLSPAPVLGYSSLPSGFSGTLPGNTQQTPSSLPLGSTPGISPTPLHTQVQSSAAQQPPPASAAPRMSTVASQIQQVPVVLQPHFIKADSLLLTAVKTDTGATMKTAGINTLAPGTAVQAGPLQTLVSGGTILATVPLVVDTDKLPIHRLAAGGKALGSAQSRGEKRTAHNAIEKRYRSSINDKIVELKDLVVGTEAKLNKSAVLRKAIDYIRFLQHSNQKLKQENLTLRSAHKSKSLKDLVSACGSGGGTDVSMEGMKPEVVETLTPPPSDAGSPSQSSPLSLGSRGSSSGGSDSEPDSPAFEDNQVKAQRLPSHSRGMLDRSRLALCVLVFLCLTCNPLASLFGWGILTPSDASGVHRSSGRSMLEAESRDGSNWTQWLLPPLVWLANGLLVLACLALLFVYGEPVTRPHSGPAVHFWRHRKQADLDLARGDFAQAAQQLWLALQALGRPLPTSNLDLACSLLWNLVRHLLQRLWVGRWLAGQAGGLQRDYRLRKDARASARDAAVVYHKLHQLHAMGKYTGGHLVASNLALSALNLAECAGDAISMATLAEIYVAAALRVKTSLPRALHFLTRFFLSSARQACLAQSGAVPLAMQWLCHPVGHRFFVDGDWAVHGAPQESLYSVAGNPVDPLAQVTRLFCEHLLERALNCIAQPSPGAADGDREFSDALGYLQLLNSCSDAVGAPACSFSVSSSMATTTGTDPVAKWWASLTAVVIHWLRRDEEAAERLYPLVEHIPQVLQETERPLPRAALYSFKAARALLDHRKVESSPASLAICEKASGYLRDSLASTSTASSIDKAMQLLLCDLLLVARTSLWRRQQSAASAQGAHGTSNGPQASALELRGFQHDLSSLRRLAQSFRPAMRRVFLHEATARLMAGASPARTHQLLDRSLRRRAGSSGKGGAAAELEPRPTWREHTEALLLASCYLPPAFLSAPGQRVSMLAEAARTVEKLGDHRLLLDCQQMLLRLGGGTTVTSS
activity of pGL3γ2p1000 reporter construct (human PPARγ2 promoter): unaffected | expression of PPARγ mRNA (PPARγ mRNA [1]): induced | PPARγ1 mRNA increase (PPARγ mRNA [2]): approximately 3 fold | stimulation of mutated pGL3γ3p800-E-boxmut reporter vector (hPPARγ3 promoter): unable to stimulate | activity of pGL3γ1p3000 reporter construct (human PPARγ1 promoter): unaffected
